Measured values as given in the Human Domainome abundance scans (Beltran et al. 2025).
± gives the uncertainty stated by the source.

Test: abundance fitness (aPCA) (normalised: wild type 0, dead -1); higher = more abundant; growth selection in yeast, the domain comes from the species named
Settings: Homo sapiens

| Substance | abundance fitness |
| --- | --- |
| NEDD4-like E3 ubiquitin-protein ligase WWP2 T471A, O00308 | -0.725 ± 0.064 |
| NEDD4-like E3 ubiquitin-protein ligase WWP2 T471C, O00308 | -0.59 ± 0.1 |
| NEDD4-like E3 ubiquitin-protein ligase WWP2 T471D, O00308 | -0.647 ± 0.057 |
| NEDD4-like E3 ubiquitin-protein ligase WWP2 T471E, O00308 | -0.975 ± 0.11 |
| NEDD4-like E3 ubiquitin-protein ligase WWP2 T471F, O00308 | -0.556 ± 0.09 |
| NEDD4-like E3 ubiquitin-protein ligase WWP2 T471G, O00308 | -0.673 ± 0.052 |
| NEDD4-like E3 ubiquitin-protein ligase WWP2 T471H, O00308 | -0.259 ± 0.057 |
| NEDD4-like E3 ubiquitin-protein ligase WWP2 T471I, O00308 | -0.701 ± 0.05 |
| NEDD4-like E3 ubiquitin-protein ligase WWP2 T471K, O00308 | -0.734 ± 0.065 |
| NEDD4-like E3 ubiquitin-protein ligase WWP2 T471L, O00308 | -0.887 ± 0.043 |
| NEDD4-like E3 ubiquitin-protein ligase WWP2 T471M, O00308 | -0.798 ± 0.094 |
| NEDD4-like E3 ubiquitin-protein ligase WWP2 T471N, O00308 | -0.81 ± 0.12 |
| NEDD4-like E3 ubiquitin-protein ligase WWP2 T471P, O00308 | -1.15 ± 0.13 |
| NEDD4-like E3 ubiquitin-protein ligase WWP2 T471Q, O00308 | -0.291 ± 0.073 |
| NEDD4-like E3 ubiquitin-protein ligase WWP2 T471R, O00308 | -0.62 ± 0.05 |
| NEDD4-like E3 ubiquitin-protein ligase WWP2 T471V, O00308 | -0.546 ± 0.054 |
| NEDD4-like E3 ubiquitin-protein ligase WWP2 T471W, O00308 | -0.521 ± 0.05 |
| NEDD4-like E3 ubiquitin-protein ligase WWP2 T471Y, O00308 | -0.786 ± 0.14 |
| NEDD4-like E3 ubiquitin-protein ligase WWP2 T483A, O00308 | -0.041 ± 0.034 |
| NEDD4-like E3 ubiquitin-protein ligase WWP2 T483C, O00308 | -0.005 ± 0.063 |
| NEDD4-like E3 ubiquitin-protein ligase WWP2 T483D, O00308 | -0.039 ± 0.06 |
| NEDD4-like E3 ubiquitin-protein ligase WWP2 T483E, O00308 | -0.032 ± 0.057 |

| Substance | abundance fitness |
| --- | --- |
| NEDD4-like E3 ubiquitin-protein ligase WWP2 T483F, O00308 | -0.377 ± 0.072 |
| NEDD4-like E3 ubiquitin-protein ligase WWP2 T483G, O00308 | -0.01 ± 0.032 |
| NEDD4-like E3 ubiquitin-protein ligase WWP2 T483I, O00308 | -0.056 ± 0.038 |
| NEDD4-like E3 ubiquitin-protein ligase WWP2 T483K, O00308 | 0.084 ± 0.071 |
| NEDD4-like E3 ubiquitin-protein ligase WWP2 T483L, O00308 | -0.039 ± 0.044 |
| NEDD4-like E3 ubiquitin-protein ligase WWP2 T483M, O00308 | -0.073 ± 0.055 |
| NEDD4-like E3 ubiquitin-protein ligase WWP2 T483N, O00308 | -0.247 ± 0.076 |
| NEDD4-like E3 ubiquitin-protein ligase WWP2 T483P, O00308 | -0.054 ± 0.071 |
| NEDD4-like E3 ubiquitin-protein ligase WWP2 T483Q, O00308 | -0.106 ± 0.071 |
| NEDD4-like E3 ubiquitin-protein ligase WWP2 T483R, O00308 | -0.121 ± 0.056 |
| NEDD4-like E3 ubiquitin-protein ligase WWP2 T483S, O00308 | 0.004 ± 0.042 |
| NEDD4-like E3 ubiquitin-protein ligase WWP2 T483V, O00308 | -0.03 ± 0.052 |
| NEDD4-like E3 ubiquitin-protein ligase WWP2 T483W, O00308 | -0.163 ± 0.063 |
| NEDD4-like E3 ubiquitin-protein ligase WWP2 T483Y, O00308 | -0.123 ± 0.059 |
| NEDD4-like E3 ubiquitin-protein ligase WWP2 V459A, O00308 | -0.107 ± 0.051 |
| NEDD4-like E3 ubiquitin-protein ligase WWP2 V459C, O00308 | -0.11 ± 0.065 |
| NEDD4-like E3 ubiquitin-protein ligase WWP2 V459D, O00308 | 0.05 ± 0.062 |
| NEDD4-like E3 ubiquitin-protein ligase WWP2 V459E, O00308 | 0.085 ± 0.036 |
| NEDD4-like E3 ubiquitin-protein ligase WWP2 V459F, O00308 | -0.387 ± 0.094 |
| NEDD4-like E3 ubiquitin-protein ligase WWP2 V459G, O00308 | -0.111 ± 0.051 |
| NEDD4-like E3 ubiquitin-protein ligase WWP2 V459H, O00308 | -0.103 ± 0.064 |
| NEDD4-like E3 ubiquitin-protein ligase WWP2 V459I, O00308 | -0.106 ± 0.072 |

| Substance | abundance fitness |
| --- | --- |
| NEDD4-like E3 ubiquitin-protein ligase WWP2 V459K, O00308 | -0.077 ± 0.063 |
| NEDD4-like E3 ubiquitin-protein ligase WWP2 V459L, O00308 | -0.073 ± 0.04 |
| NEDD4-like E3 ubiquitin-protein ligase WWP2 V459M, O00308 | -0.07 ± 0.05 |
| NEDD4-like E3 ubiquitin-protein ligase WWP2 V459N, O00308 | -0.024 ± 0.076 |
| NEDD4-like E3 ubiquitin-protein ligase WWP2 V459P, O00308 | -0.878 ± 0.037 |
| NEDD4-like E3 ubiquitin-protein ligase WWP2 V459Q, O00308 | -0.019 ± 0.069 |
| NEDD4-like E3 ubiquitin-protein ligase WWP2 V459R, O00308 | -0.127 ± 0.051 |
| NEDD4-like E3 ubiquitin-protein ligase WWP2 V459S, O00308 | -0.097 ± 0.045 |
| NEDD4-like E3 ubiquitin-protein ligase WWP2 V459T, O00308 | -0.025 ± 0.059 |
| NEDD4-like E3 ubiquitin-protein ligase WWP2 V459W, O00308 | -0.18 ± 0.07 |
| NEDD4-like E3 ubiquitin-protein ligase WWP2 V459Y, O00308 | -0.335 ± 0.071 |
| NEDD4-like E3 ubiquitin-protein ligase WWP2 V463A, O00308 | -0.136 ± 0.036 |
| NEDD4-like E3 ubiquitin-protein ligase WWP2 V463C, O00308 | -0.307 ± 0.086 |
| NEDD4-like E3 ubiquitin-protein ligase WWP2 V463E, O00308 | -0.16 ± 0.056 |
| NEDD4-like E3 ubiquitin-protein ligase WWP2 V463F, O00308 | -0.288 ± 0.039 |
| NEDD4-like E3 ubiquitin-protein ligase WWP2 V463G, O00308 | -0.972 ± 0.039 |
| NEDD4-like E3 ubiquitin-protein ligase WWP2 V463H, O00308 | -0.422 ± 0.093 |
| NEDD4-like E3 ubiquitin-protein ligase WWP2 V463I, O00308 | -0.165 ± 0.072 |
| NEDD4-like E3 ubiquitin-protein ligase WWP2 V463K, O00308 | -0.466 ± 0.062 |
| NEDD4-like E3 ubiquitin-protein ligase WWP2 V463L, O00308 | -0.041 ± 0.035 |
| NEDD4-like E3 ubiquitin-protein ligase WWP2 V463N, O00308 | -0.386 ± 0.056 |
| NEDD4-like E3 ubiquitin-protein ligase WWP2 V463P, O00308 | -1.29 ± 0.47 |

| Substance | abundance fitness |
| --- | --- |
| NEDD4-like E3 ubiquitin-protein ligase WWP2 V463Q, O00308 | -0.129 ± 0.08 |
| NEDD4-like E3 ubiquitin-protein ligase WWP2 V463R, O00308 | -0.352 ± 0.038 |
| NEDD4-like E3 ubiquitin-protein ligase WWP2 V463T, O00308 | -0.209 ± 0.069 |
| NEDD4-like E3 ubiquitin-protein ligase WWP2 V463W, O00308 | -0.414 ± 0.068 |
| NEDD4-like E3 ubiquitin-protein ligase WWP2 V463Y, O00308 | -0.26 ± 0.076 |
| NEDD4-like E3 ubiquitin-protein ligase WWP2 W450C, O00308 | -0.446 ± 0.051 |
| NEDD4-like E3 ubiquitin-protein ligase WWP2 W450D, O00308 | -0.552 ± 0.041 |
| NEDD4-like E3 ubiquitin-protein ligase WWP2 W450E, O00308 | -0.492 ± 0.042 |
| NEDD4-like E3 ubiquitin-protein ligase WWP2 W450F, O00308 | -0.026 ± 0.075 |
| NEDD4-like E3 ubiquitin-protein ligase WWP2 W450H, O00308 | -0.464 ± 0.085 |
| NEDD4-like E3 ubiquitin-protein ligase WWP2 W450I, O00308 | -0.197 ± 0.083 |
| NEDD4-like E3 ubiquitin-protein ligase WWP2 W450K, O00308 | -0.598 ± 0.084 |
| NEDD4-like E3 ubiquitin-protein ligase WWP2 W450L, O00308 | -0.421 ± 0.048 |
| NEDD4-like E3 ubiquitin-protein ligase WWP2 W450M, O00308 | -0.4 ± 0.071 |
| NEDD4-like E3 ubiquitin-protein ligase WWP2 W450N, O00308 | -0.581 ± 0.099 |
| NEDD4-like E3 ubiquitin-protein ligase WWP2 W450R, O00308 | -0.735 ± 0.047 |
| NEDD4-like E3 ubiquitin-protein ligase WWP2 W450S, O00308 | -0.676 ± 0.057 |
| NEDD4-like E3 ubiquitin-protein ligase WWP2 W450T, O00308 | -0.475 ± 0.075 |
| NEDD4-like E3 ubiquitin-protein ligase WWP2 W450V, O00308 | -0.175 ± 0.033 |
| NEDD4-like E3 ubiquitin-protein ligase WWP2 W450Y, O00308 | -0.211 ± 0.081 |
| NEDD4-like E3 ubiquitin-protein ligase WWP2 Y454A, O00308 | -0.036 ± 0.056 |
| NEDD4-like E3 ubiquitin-protein ligase WWP2 Y454C, O00308 | -0.037 ± 0.048 |
